{"source": "patent US6723699B1", "about": "“Treating disorders by application of insulin-like growth factors and analogs” (Cephalon, Inc., priority 1989, dated 2004)", "key": {"[1]": {"molecular_target": "T1, IGF-I receptor (Rattus norvegicus, UniProt P24062)", "T1 construct": "Brain tissue containing the cerebral cortex and cerebellum was dissected from adult Sprague-Dawley rats; from tissue; host or cells: adult Sprague-Dawley rat brain (cerebral cortex and cerebellum), homogenate pellet", "T1 sequence (P24062 31-737 limits assumed)": "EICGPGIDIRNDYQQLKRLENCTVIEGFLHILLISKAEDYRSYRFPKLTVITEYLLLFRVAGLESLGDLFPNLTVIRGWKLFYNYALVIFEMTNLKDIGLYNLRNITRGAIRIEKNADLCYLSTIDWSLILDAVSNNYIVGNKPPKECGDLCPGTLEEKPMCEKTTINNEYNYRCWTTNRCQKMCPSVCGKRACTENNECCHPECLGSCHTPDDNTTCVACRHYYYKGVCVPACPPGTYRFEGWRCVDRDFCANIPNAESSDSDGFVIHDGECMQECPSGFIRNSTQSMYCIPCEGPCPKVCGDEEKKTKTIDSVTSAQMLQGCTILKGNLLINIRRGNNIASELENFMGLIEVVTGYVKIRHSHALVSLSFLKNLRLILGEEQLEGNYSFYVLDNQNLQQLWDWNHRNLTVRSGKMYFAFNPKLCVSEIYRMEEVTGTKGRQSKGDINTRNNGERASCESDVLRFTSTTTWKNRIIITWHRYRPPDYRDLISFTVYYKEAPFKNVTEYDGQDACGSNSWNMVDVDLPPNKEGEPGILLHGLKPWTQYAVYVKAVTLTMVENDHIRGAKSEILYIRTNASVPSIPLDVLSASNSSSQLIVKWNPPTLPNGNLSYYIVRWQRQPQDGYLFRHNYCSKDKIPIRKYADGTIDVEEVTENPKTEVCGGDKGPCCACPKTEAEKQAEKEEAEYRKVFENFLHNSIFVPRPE", "T1 sequence (P24062 742-1370 partner limits assumed)": "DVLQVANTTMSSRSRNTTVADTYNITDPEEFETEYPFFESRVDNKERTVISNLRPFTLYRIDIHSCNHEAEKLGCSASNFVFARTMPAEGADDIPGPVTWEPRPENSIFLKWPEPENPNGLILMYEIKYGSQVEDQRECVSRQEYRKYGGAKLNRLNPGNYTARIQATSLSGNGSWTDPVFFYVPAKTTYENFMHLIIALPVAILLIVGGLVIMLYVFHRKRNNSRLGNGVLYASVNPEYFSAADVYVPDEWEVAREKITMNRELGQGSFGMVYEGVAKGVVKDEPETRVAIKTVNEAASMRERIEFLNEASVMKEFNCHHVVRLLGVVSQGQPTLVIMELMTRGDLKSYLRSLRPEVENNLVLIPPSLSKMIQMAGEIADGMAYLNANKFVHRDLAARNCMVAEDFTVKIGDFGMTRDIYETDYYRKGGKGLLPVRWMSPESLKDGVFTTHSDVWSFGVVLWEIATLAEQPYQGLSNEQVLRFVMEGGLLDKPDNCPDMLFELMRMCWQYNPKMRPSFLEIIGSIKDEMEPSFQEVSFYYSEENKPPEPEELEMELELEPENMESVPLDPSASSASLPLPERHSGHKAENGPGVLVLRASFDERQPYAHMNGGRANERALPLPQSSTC", "assay": "125I-[Threonine59]IGF-I displacement (IGF-I receptor competition) assay, rat brain homogenate", "format": "binding", "protocol": "Brain tissue containing the cerebral cortex and cerebellum was dissected from adult Sprague-Dawley rats (Hilltop Lab Animals, Inc. Scottsdale, Pa.) and homogenized at low power for 5 minutes in a Brinkmann Polytron homogenizer (Westbury, N.Y.) containing 50 volumes of ice-cold buffer consisting of 10 mM HEPES, 0.5% BSA, 0.0125% NEM, 0.025% bacitracin, and 100 KIU/ml aprotinin, pH 7.6 (Bohannon et al., Endocrinology 119:943-945 (1986). Following homogenization, the tissue was collected after centrifugation at 7800×g for 20 minutes and resuspended in 10 volumes of assay buffer. Tissue (50 μl), 100 μl ^125I-[Threonine^59]IGF-I (20 pM), and 50 μl of buffer or peptides of varying concentration were added to 96-well plates and incubated on ice for 3 hours. After the incubation period, the tissue was collected on Whatman GF/C filters that had been pre-soaked in 0.01% polyethylenimine and washed four times with ice-cold assay buffer using a Brandel cell harvester (Gaithersburg, Md.). The filters were removed and the bound ^125I-[Threonine 59]IGF-I was measured using a Beckman Model 5500B Gamma Counter."}, "[2]": {"system": "14-day embryonic rat spinal cord neurons", "assay": "Choline acetyltransferase activity in dissociated embryonic rat spinal cord neuron cultures", "format": "cell-based", "details": "48 hr incubation", "protocol": "The activity of IGF-I, IGF-II, or synthetic peptide derivatives of these molecules was assayed on dissociated cultures of 14-day embryonic rat spinal cord neurons. The spinal cord neurons were obtained from trypsin-dissociated spinal cords, plated, incubated with peptides, and subsequently (48 hr later) assayed for choline acetyltransferase activity as described by […] et al., Dev. Biol. 125:311-320 (1988)."}, "[3]": {"system": "brain ornithine decarboxylase", "assay": "Induction of brain ornithine decarboxylase after intracerebral injection, 4 day old rats", "format": "in vivo, rat", "details": "6 hours", "protocol": "The in vivo activity of IGF-I, IGF-II or synthetic peptide derivatives of these molecules was tested using a biochemical marker for CNS neurotrophic activity, the induction of brain ornithine decarboxylase. The induction (i.e. increased activity) of ornithine decarboxylase has been reported to be a general marker for the actions of a variety of trophic factors. (Schwartz et al., Dev. Brain Res. 1:403-413 (1981); Kanje et al., Brain Res. 381:24-28 (1986); Russell et al., Life Sci. 19:1297-1306 (1976); MacDonnell et al. Proc. Natl. Acad. Sci. USA 74, 4681-4684 (1977); […] et al. Proc. Natl. Acad. Sci. USA 82, 4365-4368 (1985)). Sprague-Dawley rats, 4 days old, were injected intracerebrally (in the area of the lateral ventricle) with 5 μl of 0.1 M phosphate-buffered saline (PBS) containing IGF-I, IGF-II or a synthetic peptide derivative (1.25-2.5 μg dose, with 6 animals per treatment group). After 6 hours, the brains were removed, and ornithine decarboxylase was assayed essentially as described by Lewis et al., Proc. Natl. Acad. Sci. USA 75:1021-1023 (1978)."}, "[4]": {"system": "septal cultures", "assay": "Number of AChE positive cells in rat septal cultures", "format": "cell-based", "details": "100 nM IGF-I; 4×10^5 cells/cm^2, medium with 10% bovine calf serum", "protocol": "Dissociated cell cultures of the septal region of day 17 embryonic rats were prepared by standard techniques known to those skilled in the art, using enzymatic (Dispase, Collaborative Research) dissociation of tissue. Cells were seeded (plated) at 6×10^5 cells/cm^2 in poly-1-ornithine-laminin coated plastic tissue culture wells, and cultured in serum-free N2 medium (Bottenstein et al., 1978) for 5 days without feeding. Control (uninduced) cultures received no added growth factors; induced cultures received the concentrations of IGF-I and NGF indicated in FIGS. 9 and 10 at the time of plating. NGF is commercially available. ChAT was assayed by the method described in McManaman, et al. Dev. Biol. 125:311-320 (1988). AChE staining was performed according to the method of Hartikka and Hefti, J. Neuroscience 8:2967-2985 (1988).\nWe have shown that under specific culture conditions (4×10^5 cells/cm^2 in the presence of medium containing 10% bovine calf serum), IGF-I increased the number of AChE positive cells by 3-4 fold over control, growth factor-free cultures, FIG. 12."}, "[5]": {"system": "14.5 day embryonic rat spinal cord neurons", "assay": "Choline acetyltransferase activity in 14.5 day embryonic rat spinal cord neurons, serum-free", "format": "cell-based", "details": "serum-free and insulin-free N2 medium, 48 hr", "protocol": "The activity of IGF-I, IGF-II and IGF-III was assayed on dissociated cultures of 14.5 day embryonic rat spinal cord neurons. The spinal cords were removed from embryos and dissociated in 0.05% trypsin in Dulbecco's Phosphate Buffered Saline (DPBS). Dissociated cells were seeded onto poly-1-ornithine substrates in 96 well microtiter plates at 2×10^5 cells/well in 200 μl of serum-free and insulin-free N2 medium (Bottenstein and Sato, 1979 supra) containing 0.05% bovine serum albumin. After a 48 hr incubation at 37° C. in a humidified atmosphere of 5% CO2, 95% air, cultures were assayed for choline acetyltransferase activity according to a modification (McMananman et al., Dev. Bio., 25:311-320 (1988)) of the technique described by Fonnum (Fonnum, J. Neurochem. 24:405-409 (1975))."}, "[6]": {"system": "motoneurons", "assay": "Motoneuron survival in ovo (developmentally regulated motoneuron death)", "format": "in vivo, chick", "details": "5 μg/egg daily onto chorioallantoic membrane, E6 to E9, counted E10", "text": "In the spinal cord, as well as in other regions of the nervous system, neurons are over-produced during development, and undergo a process of naturally occurring cell death prior to […] (reviewed in Oppenheim, R. W. 1991, Annu Rev. Neurosci. 14:453-501). During this period, approximately 50% of the motoneurons degenerate and die. Certain neurotrophic agents applied exogenously during this period prevent or retard this form of neuronal death (e.g., partially purified muscle extracts and ciliary neurotrophic factor reduce motor neuron death in chick embryos (McManaman et al., 1990, Neuron 4:891-898; Oppenheim et al. 1991, Science 25:1616-1617).\nThe IGFs were administered daily onto chorioallantoic membrane (5 μg/egg in a volume of 50 μl) from embryonic day E6 to E9 through a small window cut into the shell of the egg. Control embryos received an equal volume of vehicle (phosphate buffered saline) alone on E10, the embryos were removed, sacrificed and the spinal cords sectioned. Motoneurons (identified morphologically in silver-stained sections) were counted in serial sections from both treated and control embryos. […] The differences between effects produced by the different IGFs used were not statistically significant (Student t test […])."}}}
{"substance": "GPETLCGAELVDALQFVCGDRGFYFNKPTGYGSSS-RRAPQTGIVDECCFRSCDLRRLEMYCAPLKPAKSA [IGF-I]", "values": [{"measurement": "PERCENT MAX. BOUND", "setting": "[1]; peptide 10 pM, 20 pM 125I-[Thr59]IGF-I", "value": 100, "unit": "%"}, {"measurement": "PERCENT MAX. BOUND", "setting": "[1]; peptide 40 nM", "value": 9.6, "unit": "%"}, {"measurement": "displacement of 125I-[Threonine59]IGF-I (in words)", "setting": "[1]; rat brain homogenate", "value": "potent displacers"}, {"measurement": "choline acetyltransferase activity (in words)", "setting": "[2]", "value": "substantial, dose-dependent increase in choline acetyltransferase activity"}, {"measurement": "brain ornithine decarboxylase activity (in words)", "setting": "[3]", "value": "dose-dependent increase in brain ornithine decarboxylase activity"}, {"measurement": "increase in number of AChE positive cells over control", "setting": "[4]", "value": "3-4 fold"}, {"measurement": "choline acetyltransferase activity (in words)", "setting": "[5]", "value": "substantial, dose-dependent increase in choline acetyltransferase activity"}, {"measurement": "prevention of developmentally regulated motoneuron death (in words)", "setting": "[6]", "value": "partially prevented developmentally regulated motoneuron death"}]}
